Substitutions are numbered along the chain they refer to. In names and notes the source's numbering stands.

One data set addresses T1, CdgS (Nostoc sp. PCC 7120 = FACHB-418, UniProt A0ACD7RTW6).
T1 construct: gene all2874; N-terminal REC and C-terminal GGDEF domain, two C-terminal Strep-tags (pHTwinStrep), E. coli BL21(DE3), Strep-Tactin purified
T1 sequence (A0ACD7RTW6 1-330): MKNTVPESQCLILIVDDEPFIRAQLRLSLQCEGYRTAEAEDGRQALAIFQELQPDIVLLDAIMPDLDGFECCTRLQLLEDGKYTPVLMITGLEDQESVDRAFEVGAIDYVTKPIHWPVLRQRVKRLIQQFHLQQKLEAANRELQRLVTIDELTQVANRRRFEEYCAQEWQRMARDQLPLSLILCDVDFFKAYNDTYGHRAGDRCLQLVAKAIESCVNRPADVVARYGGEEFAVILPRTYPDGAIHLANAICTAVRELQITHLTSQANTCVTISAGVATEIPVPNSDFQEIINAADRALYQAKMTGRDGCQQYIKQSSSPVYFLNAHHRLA
As to the kind of experiment: HPLC, diguanylate cyclase product formation. Format: biochemical. To be noted: DGC activity (GTP to c-di-GMP); 50 μM GTP, 2 μM protein, pH 8.0, 10 mM MgCl2, 25 °C, 30 min.

Substrate in data set [1]: Nc1nc2c(ncn2[C@@H]2O[C@H](COP(=O)(O)OP(=O)(O)OP(=O)(O)O)[C@@H](O)[C@H]2O)c(=O)[nH]1
Kind of data set: HPLC, diguanylate cyclase steady-state kinetics. Format: biochemical, Nostoc sp. PCC 7120 = FACHB-418. To be noted: DGC activity (GTP to c-di-GMP), GGDEF domain, 50 mM Tris-HCl pH 8.0, 10 mM MgCl2, 0.5 mM EDTA, 300 mM NaCl, 25 °C. The source says:
HPLC, diguanylate cyclase steady-state kinetics on CdgSH

Substrate in data set [2]: Nc1nc2c(ncn2[C@@H]2O[C@@H]3CO[P@](=O)(O)O[C@H]4[C@@H](O)[C@H](n5cnc6c(=O)[nH]c(N)nc65)O[C@@H]4CO[P@](=O)(O)O[C@H]3[C@H]2O)c(=O)[nH]1
As to the kind of experiment: HPLC, c-di-GMP phosphodiesterase steady-state kinetics. The note with it: PDE activity (c-di-GMP to pGpG), EAL domain, 50 mM Tris-HCl pH 8.0, 10 mM MgCl2, 0.5 mM EDTA, 300 mM NaCl, 25 °C. Format: biochemical, Nostoc sp. PCC 7120 = FACHB-418. The source says:
HPLC, c-di-GMP phosphodiesterase steady-state kinetics on CdgSH

With `Nc1nc2c(ncn2[C@@H]2O[C@H](COP(=O)(O)OP(=O)(O)OP(=O)(O)O)[C@@H](O)[C@H]2O)c(=O)[nH]1` [GTP], the “HPLC, diguanylate cyclase product formation” value on CdgS was “CdgS could convert the substrate GTP to c-di-GMP”.

B1: CdgSH (Nostoc sp. PCC 7120 = FACHB-418) (protein)
chain: MPGNEWEKIRHILVVQDLQGQRTIPLQEATYSIGRHTSNAIVLHSRSVSRQHAILLRVTLPETDQCSFRIIDGNFKGQGSTNGLLVNGTRCFSHNLRHGDVINFGSHQAQAKYYAISNISEKAFFASADVEDLSTFLSELSQPVNPFQTLVVDPEFEGASETALARLASFPELIPNPIIETDLEGRVTYINPAASVKFPDLRELGKQHPILKDILNIAENPKINPFVREVTVGHAVYEQSVHNLPESDLIRTYIIRDVTEQKQAEAELHQRDRLLQAVAEAANWLVVEMNYDTAIEKALAVVGEAAQADRAYLFKNHPHPITGKRAVSLQFEWYGSDLQPSIQDWQNQLYQSTELSRWYSVLSSGKSINELRRKLPVAERELLERQGIQSLLLVPLGLEDQFWGYLGLADCTQERYWSRHEESTLLTMAASISGAWQRQQVEEKIRYQALHDLLTGLPNRLLFNELLAKALANASRSQESLAVMFLDLDRFKVINDTLGHTLGDRLLQSVAQRLRDCLRSGDTVSRWGGDEFTILLPHISYIEEVTQAACRILKALEEVFHLDGHELYVSASLGIALLDHHSPDAEALIKHADAALYHAKDEGRNNYQFYTTSLSGKTPELLTLEKSLRYALEKQELKVYYQPRVNILTGQITGMEALLRWQHPEMGIVAPSIFIPIAEETGLIIPIGEWVLRTACMQNRAWQEAGLPPVQMAVNLSPKQFRQPTLLELVSAILAETGLAPEFLELEITESTAIEDIDFTRSVLENLQQMGVDIAIDDFGTGHSSLSRLQLLPLHNLKIDGSFIKALTTDSKVAHIVKAIVTLGRSLGLRLTAEGVEKQEELDFLKSINCQDVQGFLFHKPLSAEKATEILQGEKKHATL
notes: FHA-PAS-GAF-GGDEF-EAL protein, two C-terminal Strep-tags (pHTwinStrep), E. coli BL21(DE3), Strep-Tactin purified
For B1, in data set [1], the Km is 37.2 µM and the kcat turned out to be 0.39 s⁻¹. Also, in data set [2], the Km was 23.5 µM and the kcat is 1.26 s⁻¹.

B2: CdgSH (Nostoc sp. PCC 7120 = FACHB-418; D530A/E531A) (protein)
chain: B1 chain with D530A, E531A
notes: as for B1
Turning to B2, in data set [2], the Km turned out to be 31.0 µM and the kcat came to 1.78 s⁻¹.

B3: CdgSH (Nostoc sp. PCC 7120 = FACHB-418; E656A/L658A) (protein)
chain: B1 chain with E656A, L658A
notes: as for B1
On to B3, for which, in data set [1], the Km was 34.8 µM and the kcat turned out to be 0.12 s⁻¹.

For orientation: Km means the substrate concentration at which the rate is half of its maximum. The kcat is the maximal rate divided by the concentration of active sites.
